Measured values reported in article PMC5477490 (Nature Communications, 2016).

How the values were obtained:
Assay in all cases: BLI; […] (AHC) biosensor, […]; Octet Red; 25 °C; kinetics buffer 1 × PBS, pH 7.4; association 900 s, dissociation 900 s; […]
Conditions in all cases: both partners purified
[1] = molecular target: HA of A/California/07/2009(H1N1) (Influenza A virus …, UniProt C3W5X2, strain)
HA of A/WSN/1933(H1N1) = HA of A/WSN/1933(H1N1) (Influenza A virus A/WSN/1933(H1N1), strain)
[2] = molecular target: HA of A/Canada/720/2005(H2N2) (Influenza A virus …, UniProt Q4ZH98, strain)
[3] = molecular target: T1, HA of A/Brevig Mission/1/1918(H1N1) (Influenza A virus A/Brevig …, UniProt Q9WFX3, strain)
T1 construct: source: bought: Sino Biological Inc

[4] = molecular target: HA of A/Brisbane/59/2007(H1N1) (Influenza A virus …, strain)
[5] = molecular target: HA of A/Vietnam/1203/2004(H5N1) (Influenza A virus …, UniProt A8UDR6, strain)
[6] = molecular target: HA of A/Hong Kong/483/1997(H5N1) (Influenza A virus A/Hong …, strain)
[7] = molecular target: HA of A/Anhui/1/2005(H5N1) (Influenza A virus A/Anhui/1/2005(H5N1), strain)

B1: human mAb 3E1 (antibody, V domains shown)
VH: QVQLQESGPGLVKPSETLSLTCSVSGASISSYYWIWIRQPAGKGLEWIGRFYTSGSPNYNPSLRSRVTMSVDTSKNQFSLKLTSVTAADTAVYYCAREEHITFGGVIVRYWGQGTLVTVSS
VL: DIQMTQSPATLSASVGDRVSITCRASQSISSWLAWYQQKPGKAPKLLIYKASSLESGVPSRFSGSGSGSEFTLTISSLQPDDFAIYYCQQYNSYPWTFGQGTKVEIK
notes: IgG1, kappa; also called 3E1 mAb
B1: binds [1]; binds (HA of A/WSN/1933(H1N1)); no binding [2]. B1: binds [3]; binds [4]; binds [5]. B1: binds [6]; binds [7].
